Data from the nanobody polyreactivity screen of Harvey et al. (2022).

Assay: yeast display, Sf9 membrane polyspecificity reagent, FACS + sequencing; frameworks hold sequencing errors
Summary of the method: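 Galactose induction of a Saccharomyces cerevisiae BJ5465 synthetic nanobody display library ran 36–48 hours. The cells were then stained for 1 hour at 4 °C with 10% biotinylated, detergent-solubilized Sf9 membrane reagent, pulled down on streptavidin microbeads and FACS-sorted into low and high (top ~1%) gates on expression and reagent-binding fluorescence. Labels for polyreactivity follow the gate of origin.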

Question: For “QVQLVGSGGGLVQAGGSLRLSCAASGLTFNWYAMGWYRQAPGKERELVASVSKRGGSTYYADSVKGRFTISRDNAKNNVYLQMNSLKPEDTAVYYCAASRYPSYDYWGQGTQVTVSS”, which “polyreactivity (PSR sort gate)” value is on record?
Answer: Its value is “high polyreactivity”.

Question: For “QVQLVKSGGGLVQAGGSLRLSCAASGGTFSFYTMGWYRQAPGKERELVAAIDSTGRTNYADSVKGRFTISRDNANHTVYLQMNSLKPEDTAVYYCAAGPPRADYDYWGQGTQVNVSS”, which “polyreactivity (PSR sort gate)” value is on record?
Answer: The value was “low polyreactivity”.

Question: For “QVQLVKSGGGLVQAGGSLRLSCAASGSTFYNAMGWYRQAPGKEREWVAAISIGGSTYYADSVKGRFTISRDNAKNTVYLQMNSLKPEDTAVYYCNSDLYYWLRYYDRNDYWGQGTQVTVSS”, which “polyreactivity (PSR sort gate)” value is on record?
Answer: Its value is “low polyreactivity”.

Question: With “QVQLVKSGGGLVQAGGSLRLSCAASRFIIPEYTMGWYRQAPGKARELVAAISGSGGSTYYADSVKGRFTISRDNAKHTVYLQMNSLKPEDTAVYYCATAFIVPFPGSDYWGQGTQVTVSS” as the sequence, how does the “polyreactivity (PSR sort gate)” value read?
Answer: The value was “low polyreactivity”.

Question: For “QVQLVQSGGGFVQAGGSLRVSCAASGRTFGVYAMGWYRQAPGKEREFVAAISYSGGRTYYADSVKGRFTISRDNAKNTVYLQMNSLKPEDTAVYSCNARAFPYYRRFDYWGQGTQVTVSS”, which “polyreactivity (PSR sort gate)” value is on record?
Answer: The value was “high polyreactivity”.

Question: With “QVQLVQSGGGLLQAGGSLRLSCAASGSINIYNDMGWNRQATGKERELVAAITSSGGSTYYADSVKGGFTISRDNGKNTVYLQMNSLKPEDTAVYYCAADYVDHKVWYDYWGHGTQVTVSS” as the sequence, how does the “polyreactivity (PSR sort gate)” value read?
Answer: Its value is “low polyreactivity”.

Question: With “QVQLVQSGGGLLQAGGSLRLSSAASGYTFGYYARGCYREAPGQERELVAAITSGGTTNYADTVKGRFTISRDNAKNTVYLQINSLKPEDTAVSYCNAVCTFVRYWTDGRDGVTYDYWGQGTQVTVSS” as the sequence, how does the “polyreactivity (PSR sort gate)” value read?
Answer: The value was “low polyreactivity”.

Question: For “QVQLVQSGGGLVQAGGSLRLICAASGSIFLYYAMGWYRQAPAKERELVAGIRRGGRKNYADSVKGRFTISRDNSKNTVYLQLNSLKPEDTGVYYCAKGGYWGQCTQVTVSS”, which “polyreactivity (PSR sort gate)” value is on record?
Answer: Its value is “high polyreactivity”.

Question: With “QVQLVQSGGGLVQAGGSLRLSCAASGRTFSKYVLGWYRQAPGKERQLVAAITYSGGYTYYADSVKGRFTISRDNAKNTVYLQMYSLKPEDTAVYYCAAESYAHVSNGYDYWGQGTQVTVSS” as the sequence, how does the “polyreactivity (PSR sort gate)” value read?
Answer: The value was “low polyreactivity”.

Question: For “QVQLVQSGGGLVQAGGSLRLSCAASGSIFYDYAMGWYRQAPGKERELVAAINSGVSTSYADSVKGRFTISRDNAKNTVYLQMNSLKPEDTAVYYCAKDGSSPSPWYGGFGYWGQGTQVTVSS”, which “polyreactivity (PSR sort gate)” value is on record?
Answer: The value was “low polyreactivity”.

Question: Which “polyreactivity (PSR sort gate)” value does the source give for “QVQLVQSGGGLVQAGGSLRLSCAASGSIINKYAMGWYRQAPGKERELVAAISFSGGSTYYADSVKGRFTISRDNAKITVYLQMNSLKPEDTAVYYCAAYHRPYQSYYWGKGTQVTVSS” here?
Answer: Its value is “high polyreactivity”.

Question: Which “polyreactivity (PSR sort gate)” value does the source give for “QVQLVQSGGGLVQAGGSLRLSCAASGSTFYLNAMGLYIQAPGKERELLAAITDAGSTNYADSVKGRFTISRDNAKNTVYLQMNSLKPEDTAVYYCNAEPRYYSGGHGYDYWGQGTQVTVSS” here?
Answer: Its value is “low polyreactivity”.

Question: Which “polyreactivity (PSR sort gate)” value does the source give for “QVQLVQSGGGLVQAGGSLRLSCAASGSTFYTYGLGWYRQAPGKARQFVAAISYRGGSTYYADSVKGRFTISRDNAKNTVYLQMNSLKPEVTAVYYCYVDGVVVGTIRGGYDYWGQGTQVTVSS” here?
Answer: Its value is “low polyreactivity”.

Question: For “QVQLVQSGGGLVQAGGSLRLSCAASGYIFNFNPMGWNRQAPGKERELVAVISDRDDTTYYADSVKGRFTISRDNAKNTVYLQMNSMKPEDTAVYYCAAVGDTYVDDQYDYWGQGTQVTVSS”, which “polyreactivity (PSR sort gate)” value is on record?
Answer: The value was “low polyreactivity”.

Question: Which “polyreactivity (PSR sort gate)” value does the source give for “QVQLVQSGGGLVQAGGSLRLSCAATGSTFRIYAIGWYRQAPGKEREFVAAISDRGGRTYYADSVKGRFTISRDNAKNTVYLQMNSLKPEDTAVYYCAAVKLLSSAPGDDGQMNYWGQGTQVTVSS” here?
Answer: The value was “low polyreactivity”.

Question: Which “polyreactivity (PSR sort gate)” value does the source give for “QVQLVQSGGGLVQAGGSLSLSCAASGRIFGINAMGWYRQAPGKESELVAAISSGGSTYYADSVKGRFTISLDNAKNTVYLQMNSLKPEDTAVYYCAADYDSYVSHDRGVWRDYWGQGTQVTVSS” here?
Answer: Its value is “low polyreactivity”.
